The target in assay [1] is peptide-binding domain of GRP78 (GRP78-PBD, amino acids 421-639) (UniProt P11021). Put plainly: SPR (BIACORE T200), N-biotin peptide on streptavidin CM5 chip, GRP78-PBD analyte.
Assay [2] has the same target. Briefly: SPR (BIACORE T200), C-terminal biotin peptide on streptavidin CM5 chip, GRP78-PBD analyte.

Where no end group is shown, it is not given here. The star is where a group is joined. biotin = biotin label attached through an aminohexanoic acid linker; Biotin = O=C1N[C@H]2[C@H](CS[C@H]2CCCCC(=O)*)N1; Ahx = NCCCCCC(=O)O

Chain of peptide-binding domain of GRP78 (GRP78-PBD, amino acids 421-639) (P11021 421-639 limits assumed, form in doubt): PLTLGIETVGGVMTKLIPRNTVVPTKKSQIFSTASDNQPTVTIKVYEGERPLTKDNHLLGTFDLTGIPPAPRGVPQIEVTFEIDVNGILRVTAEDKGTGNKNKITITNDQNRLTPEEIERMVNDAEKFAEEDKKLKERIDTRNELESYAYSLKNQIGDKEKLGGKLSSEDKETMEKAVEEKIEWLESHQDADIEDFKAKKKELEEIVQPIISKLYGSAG

In assay [1], {biotin-Ahx}-GGGGSRLLDTNRPFLFY [P13-CTP, N-terminally extended with GGGGS and N-terminally biotin-labeled] returned a Kd of 2700 nM, a koff of 0.0034 s⁻¹ and an on-rate (kon) of 1200 M⁻¹ s⁻¹.

In assay [2], MRPFLFPFLFYGGGGSK(Biotin) showed a Kd of 1200 nM, a koff of 0.00029 s⁻¹ and an on-rate constant (kon) of 240 M⁻¹ s⁻¹.

In assay [1], {biotin-Ahx}-GGGGSRPFLPFLPY [F4P6-TR-CTP, N-terminally extended with GGGGS and N-terminally biotin-labeled] came in with a Kd of 1200 nM, a koff of 0.0028 s⁻¹ and a kon of 2300 M⁻¹ s⁻¹.

In the case of {biotin-Ahx}-GGGGSRPFLFPFLFY [F4P13-TR-CTP, N-terminally extended with GGGGS and N-terminally biotin-labeled], in assay [1], the Kd turned out to be 2100 nM, the koff turned out to be 0.0017 s⁻¹ and the on-rate (kon) was 790 M⁻¹ s⁻¹.

For the molecule RPFLFPFLFYGGGGSK(Biotin), in assay [2], the dissociation constant Kd is 660 nM, the off-rate (koff) amounted to 0.0012 s⁻¹ and the on-rate constant (kon) was found to be 1800 M⁻¹ s⁻¹.

In assay [2], RLLDTNRPFLFYGGGGSK(Biotin) [P13-CTP-cBiotin (P13-CTP extended at the C-terminus with GGGGSK, biotin on the C-terminal lysine)] gave a Kd of 2700 nM, a koff of 0.002 s⁻¹ and a kon of 970 M⁻¹ s⁻¹.

In assay [1], {biotin-Ahx}-GGGGSRPFLFPFLFYRPFLFPFLFY [F5P13-TR-CTP, N-terminally extended with GGGGS and N-terminally biotin-labeled] had a Kd of 610 nM, a dissociation rate constant (koff) of 0.0012 s⁻¹ and an association rate constant (kon) of 1900 M⁻¹ s⁻¹.

In assay [1], {biotin-Ahx}-GGGGSRLLDTNRPFLPY [P6-CTP, N-terminally extended with GGGGS and N-terminally biotin-labeled] yielded a Kd of 1900 nM, a koff of 0.003 s⁻¹ and an on-rate (kon) of 1500 M⁻¹ s⁻¹.

In assay [1], {biotin-Ahx}-GGGGSRPFLPFLPYRPFLPFLPY [F5P6-TR-CTP, N-terminally extended with GGGGS and N-terminally biotin-labeled] showed a Kd of 1000 nM, a koff of 0.00091 s⁻¹ and a kon of 890 M⁻¹ s⁻¹.

For the origin of these results see US20210253636A1.
